Reference: the supplement of paper PMC12764529
± gives the half width of the 95% confidence interval.

experiment: folding stability dG unfold from chymotrypsin proteolysis; higher = more stable
Procedure, shortened: (§1)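 Unfolding free energy was derived, per protease or combined, by relating Bayesian-fitted K50 values from sequencing counts to a sequence-predicted unfolded-state K50 and a shared folded-state K50. The underlying digests exposed cysteine-free mini-proteins under 80 residues, in a PA-tagged cDNA display construct, to trypsin and chymotrypsin at 11 threefold-diluted concentrations and to a no-protease condition. A filter kept only designs with AlphaFold2 dimer inter-PAE above 15.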

Going from “SAGGSAGGSPDVVVPATLTFPLDAVAKAEFYPDGTVKVTFPDNTVALAKVEGGVVTDVRLAPASAGGSAGGS [r12_749_TrMRF]” to “SAGGSAEIEVTVYYDPETGEILVLINFPDETKFEVAVEEFKKLFEKVEAVKLPDGSVLVRSPLKDASAGGSA [r15_1057_TrMRF]”, the “folding stability dG unfold” value rises from 0.0478 ± 0.066 kcal/mol to 1.7 ± 0.071 kcal/mol.

“SAIVLVVADDSPEEAVERARRFAATLRERLVREGYPDADVPIVVEVRAVPPPVPVPVRLPDGDEVVPAPSAG [r14_475_TrMRF]” and “SAGGSAGGSAGLDNIKPEELKKLFPGYKVYLLKVEEVGGKLKVDVKILKYNPSTNTWTPESAGGSAGGSAGG [r11_20_TrMRF]” are within error of each other in “folding stability dG unfold” value: 1.7 ± 0.044 kcal/mol for the first, 1.59 ± 0.14 kcal/mol for the second.

Going from “SAGKEIIIPFRDIPPKYIKNQLKKFPPGKEIRIMFPGPEVADYLKEKGFPVRPERIKPITPDDMAKMMNSAG [r5_354_TrROS]” to “SAMKTEVIEFENFTIVVEELPDGSKKIIILFENPEKAKEALEKNPWIKEFIAEAEKEGYDVELAVVEPESAG [r14_873_TrMRF]”, the “folding stability dG unfold” value rises from -0.186 ± 0.26 kcal/mol to 3.31 ± 0.042 kcal/mol.

First: SAGGSAGGSAGGSELIFKTEDGYYVKVKLKNGKTIVFPAENLEELKKLNVEKVEVVPAKSAGGSAGGSAGGS [r4_348_TrROS_Hall]
Second: SAGGSAMNPKLEALPEVEITEEKTEEYKTAENKKLLVKEYKSNAEPGKTYKVIYDPETGKVLSVEESAGGSA [r15_66_JUSTAS]
The “folding stability dG unfold” value of the first is lower: 0.831 ± 0.042 kcal/mol for the first, 1.1 ± 0.11 kcal/mol for the second.

Going from “SAGGSDVEIEVFENAIIITIPLDLDNGKGETVEVRIIAPFTPDGRPIFRIEVINPDSDEVVTFTFPSAGGSA [r2_484_TrMRF]” to “SAGKKVVIIEIEEVTNEDGEKEYKIRVLVKDEETGEVTEREITVKEGESIEDLIKKALEEGADEVIIVPSAG [r5_37_TrROS_Hall]”, the “folding stability dG unfold” value rises from 2.766 ± 0.017 kcal/mol to 4.15 ± 0.14 kcal/mol.

With “SAGGSAGGEIPADAEIEEFEFGGKPYFLVRFPDGTAALYERKGDKWELIATVPVPPDSRIFFKGSAGGSAGG [r6_475_TrMRF]” the “folding stability dG unfold” value was 1.19 ± 0.086 kcal/mol.

experiment: folding stability dG unfold (combined trypsin and chymotrypsin); higher = more stable
Procedure, shortened: as §1

Going from “KTITIVVKVPSLEEVEALAAELAKELNLPPGAKVEVKVEYDEETGYVVVTVTVTNPNGEKIEIKIVVELPDS [r1_84_TrROS_Hall]” to “SAGGSAGGSAGGSGMTPIPLEVLERKVTEYDPKNGKITVEALAILPDGTPVKLKFTVELSAGGSAGGSAGGS [r4_184_JUSTAS]”, the “folding stability dG unfold” value falls from 3.08 ± 0.22 kcal/mol to 1.37 ± 0.22 kcal/mol.

Going from “SAGGPDELELVIVFPAEALGTGEGGEPYTAEDIAEAIKKELPKDEVEVEIAEIDEETGEIVVTVKVPSAGGS [r16_284_TrMRF]” to “SAGGSAGGSAGGMTLEEVKKALEELGIKEENQTVTIELEDGSKVKITVKDGKVVLEVEPSAGGSAGGSAGGS [r10_604_TrROS_Hall]”, the “folding stability dG unfold” value rises from 0.748 ± 0.23 kcal/mol to 2.54 ± 0.13 kcal/mol.

“SAGLKEIAKKLGLSEEKIKIKEIKKKKKVVYDKKTKKKYEKEEIVIKIEIVDPKTKKKYEIEIPLEEIKSAG [r5_517_TrROS_Hall]” and “SMITIEINVGNKKYTVEIVPEKGIIKITDPNGTPIGEGEIKPDSIDITLTKPNTDETYKFTFPIPPESLPSA [r9_963_JUSTAS]” are within error of each other in “folding stability dG unfold” value: 2.55 ± 0.22 kcal/mol for the first, 2.69 ± 0.18 kcal/mol for the second.

Going from “SAGGSAMVYLVTVTIKSEGKEVRYKEWVESDEPEKLIEKVKKEYPNEEIKVEITPFPSKEEAEKLLSAGGSA [r15_889_JUSTAS]” to “SAGGSAGAPLVLAEVELDPETGEVRIRVYDPVTGKVYEYTTPGSLADAIREIERETGIPITEVVVASAGGSA [r15_101_TrMRF]”, the “folding stability dG unfold” value rises from 2.41 ± 0.096 kcal/mol to 3.63 ± 0.077 kcal/mol.

First: SGMERTPLTPTETVTLTIPPGSLTITPTASPGPLTVTVTVPGSGTPTVVELPVEAPDLDAALAAVVAALQSA [r9_982_JUSTAS]
Second: SMETLEIEITVKVEKDENGKIRKVSVEELKEELEKAGFKITEIEITEVTENTVKIKIKIEKPEEEEEEEESA [r9_225_TrROS_Hall]
The “folding stability dG unfold” value of the first is lower: 1.12 ± 0.056 kcal/mol for the first, 3.25 ± 0.55 kcal/mol for the second.

Compared with “SAGGSAGGSKEPIRVDEFEWRKNKDGMDMVQVTFPNNGKDIHLPPEHLDNLEPGDEIPLDDLISAGGSAGGS [r20_3_TrROS]”, “SANWHRFTIEAWVPVRDPNGKPIRPEQVEEQAERIANELWPRGFPIKDVTVEQHPDGWVRITATIEVPDSAG [r14_470_TrROS]” is higher in “folding stability dG unfold” value: -0.138 ± 0.2 kcal/mol for the first, 2.94 ± 0.11 kcal/mol for the second.

Going from “SAGEIKIEIKKNKNGKLTIRITVKKKDGEEKEIEIEVPENMTAEELAKELEKKGFEITEIKSIEELLKSAGG [r19_263_TrROS_Hall]” to “SAGGSAGGSAFVWNPDTGTFIQLDPNDGTIEVFEIENDNDGKLEPIGTVEVDPDDPDKGTITSAGGSAGGSA [r18_448_TrROS]”, the “folding stability dG unfold” value falls from 3.98 ± 0.6 kcal/mol to 1.5 ± 0.1 kcal/mol.

Compared with “SAGGSAGGSGPMDDPVPPRFSVETSVSPVALPPEFVAYVAAHPEEVDAVYTTTVVVLEEGPAGSAGGSAGGS [r12_196_JUSTAS]”, “GLEVKVDITVDPVGGGTRIPVTVSVPGRPIAQATADVDPETGVVNLDLGAESEEERKAALEKLKEAGIKLGS [r1_455_JUSTAS]” is higher in “folding stability dG unfold” value: -0.449 ± 0.22 kcal/mol for the first, 1.35 ± 0.083 kcal/mol for the second.

Compared with “SAGGSAGGSAGGGSMVTVPVTTESTTTVPPGAPAVEAAPVDPATATVSTTTSSTSLVASSAGGSAGGSAGGS [r10_82_JUSTAS]”, “SAGGSAGGSYLDPNKVYLVETEVVGDKVVFTLRDPETGETFVLEADASKEVLKPGDRVLALVASAGGSAGGS [r12_525_TrMRF]” is higher in “folding stability dG unfold” value: 0.862 ± 0.092 kcal/mol for the first, 1.82 ± 0.12 kcal/mol for the second.

Compared with “SAGGKTIPIWFRVPPGMTPEEAADELADEIANELQQQNGKEIEIKIDDVEPNPNGWNIVRIKIEVDPSAGGS [r8_156_TrROS]”, “SAGGSAGGSKIEFTVPDNDELIEYIRKWFQDNGGQIKNIKIEPTPPNQVKVEIEINPGDPWFQSAGGSAGGS [r12_647_TrROS]” is higher in “folding stability dG unfold” value: 0.26 ± 0.32 kcal/mol for the first, 2.2 ± 0.14 kcal/mol for the second.

In the case of “SAGGMSLHIPLPANNEELAEELAEELRDLYAAIPGTPGEVEVDIEPTPEGGYRLIVRFPDHVDEIPASAGGS [r16_356_TrMRF]”, the “folding stability dG unfold” value is reported as 1.34 ± 0.073 kcal/mol.
